In publication PMC5715787, “Structural basis for antibody recognition of the NANP repeats in Plasmodium falciparum circumsporozoite protein” (Proceedings of the National Academy of Sciences of the …, 2017):

Target: T1, Ac-…-NH2 peptide (P. falciparum)
T1 sequence (peptide, N-terminal acetyl group; C-terminal NH2 group (amide)): NPNVDPNANPNV
Assay: ITC; MicroCal Auto-iTC200; triplicate (or duplicate) experiments; details in SI

- Kd: 12.1 µM
- dH: -9.66 kcal/mol
- stoichiometry N: 1.72
B1: Fab317 (Fab, V domains shown)
VH: QMQLVESGGGVVQPGRSLRLSCTASGFTFSTYAMHWVRQSPGQGLQWVAVISYHSTNKYYEDSVRGRFTISRDNSKNTLYLQMNSLRAEDTAVYYCARDGYSSSFFDFWGQGTLVTVSS
VL: DIQMTQSPSTLSASVGDRVAITCRASQSISRWLAWYQQQPGKAPKLLMSGASVLESGVPSRFSGSGSGTEFTLTISSLQPDDFATYYCQHYNSYFVTFGQGTKVEIK
